Publication PMC5030711, “Investigation of SP94 Peptide as a Specific Probe for Hepatocellular Carcinoma Imaging and Therapy” (Scientific Reports, 2016)
Where “and” joins values, the source holds several entries; their conditions need not be identical. Identical values can stand only once. Entries after “also recorded” stand apart in the source; their conditions may differ. Residues, ends and D or L forms follow the SMILES beside them. *: point of attachment. HYNIC = NNc1ccc(C(=O)*)cn1

Columns and labels:
[1] = test system: Huh-7 cells; assay type: binding, human; settings: 2 h
Method: The binding affinity of HYNIC-SP94 was assessed via a competitive displacement assay with ^99mTc tricine-EDDA/HYNIC-SP94[35]. Briefly, Huh-7 cells (1 × 10^6) and ^99mTc tricine-EDDA/HYNIC-SP94 (370 kBq) were added to each test tube in the presence of increasing concentrations of the SP94 peptide (from 0.001 nM to 10000 nM) and incubated for 2 h at 37 °C. To remove unbound ^99mTc tricine-EDDA/HYNIC-SP94, the cells were washed three times with cold PBS (1×, pH 7.2) and then centrifuged (600 rpm, 5 min). Radioactivity was determined using a γ-counter. The IC50 value was calculated by fitting experimental data with nonlinear regression using GraphPad Prism (GraphPad Software, San Diego, CA, USA).

[2] = test system: Huh-7 tumor-bearing mice; assay: Biodistribution study; assay type: in vivo, balb/c nude mice; settings: mean ± SD; for Tumor uptake: Huh-7 tumor; for Tumor/muscle: ratio
Source text: Four- to six-week-old male athymic nude mice were used for preparation of the xenograft tumor models. Huh-7 and Hela cells were subcutaneously injected at a concentration of 5 × 10^6 cells/mouse in the right front flank of the mice. The mice were ready for biodistribution and microSPECT/CT imaging study when the tumors reached an average diameter of 0.8~1.0 cm (3~4 weeks after inoculation). Animal care and experimental procedures were accordant with the Helsinki Declaration and were approved by the institutional animal care committee.
Fifteen Huh-7 tumor-bearing mice were randomly divided into three groups. ^99mTc tricine-EDDA/HYNIC-SP94 (~0.74 MBq/mouse) in 0.1 mL of saline was injected via tail vein. At 0.5 and 1.5 h p.i., the mice were anesthetized via 2% isoflurane and sacrificed by cervical dislocation. Immediately after sacrifice, the blood, tumors and organs of interest (heart, lungs, liver, spleen, stomach, small intestine, large intestine, kidneys, muscle and thyroid) were harvested, washed with saline and weighed. Radioactivity was determined using a γ-counter. To determine the specific uptake of ^99mTc tricine-EDDA/HYNIC-SP94, 5 mice received an intravenous injection of 200 μg of unlabeled HYNIC-SP94 as a blocking agent 30 min prior to injection of ^99mTc tricine-EDDA/HYNIC-SP94 (~0.74 MBq/mouse). The mice were sacrificed 30 min p.i. and the experiments performed as described above. Absorption of organs and tissues was calculated as a percentage of the injected dose per gram of tissue mass (%ID/g).

[3] = In vivo stability (RP-HPLC of plasma); design: species or system balb/c mice; settings: within 60 min after tail vein injection (~30 MBq/mouse)
Method: The in vivo stability of ^99mTc tricine-EDDA/HYNIC-SP94 was evaluated in balb/c mice. ^99mTc tricine-EDDA/HYNIC-SP94 (~30 MBq/mouse) in 0.1 mL of saline was injected via the tail vein. Blood was then taken from the heart 10, 30, 60, 120 and 240 min after injection under anesthesia. Blood was collected in a heparin tube and immediately centrifuged (5000 rpm, 5 min) to obtain plasma. A total of 400 μL methanol/trichloromethane (V/V: 4/1) was added to 400 μL of plasma, fully mixed and centrifuged (5000 rpm, 5 min). RP-HPLC analysis was performed with 20 μL supernatant loading filtered by a 0.22 μm filter. The RP-HPLC was equipped with a Zorbax Eclipse XDB-C18 column (4.6 × 150 mm) and the following gradients were used at a flow rate of 1 mL/min: 98% solvent A (0.1% trifluoroacetic in 100% water) and 2% solvent B (0.09% trifluoroacetic in 80% ACN and 20% water): 0~5 min; 2% solvent A and 98% solvent B: 5~10 min; 98% solvent A and 2% solvent B: 10~15 min.

[4] = In vitro stability of ^99mTc-labeled complexes (radio-TLC); assay type: in vitro ADME; settings: PBS, normal saline and FBS, 37 °C, 1-12 h
Method: The in vitro stability of the radiolabeled peptide was tested by incubating it in PBS, saline and FBS for 1, 2, 4, 6 and 12 h at 37 °C. After incubation, ^99mTc-labeled complexes were assessed by radio-TLC. Results were plotted as the RCP (%) at different time points.

[5] = In vitro stability of ^188Re-HYNIC-SP94 (radio-TLC); assay type: in vitro ADME; settings: FBS, room temperature, 48 h, mean ± SD
Method: The in vitro stability of ^188Re-HYNIC-SP94 was evaluated by incubating ^188Re-HYNIC-SP94 in normal saline and FBS at room temperature. RCP was analyzed by radio-TLC at 1, 4, 8, 18, 26 and 48 h after incubation to determine the stability.

[6] = 0.5 h p.i., blocking: 200 μg unlabeled HYNIC-SP94 i.v. 30 min prior

CC[C@H](C)[C@H](NC(=O)[C@H](CO)NC(=O)[C@H](Cc1ccccc1)NC(=O)[C@H](CO)NC(=O)c1ccc(NN)nc1)C(=O)N[C@H](C(=O)N[C@@H](Cc1c[nH]cn1)C(=O)N[C@H](C(=O)N1CCC[C@H]1C(=O)N[C@H](C(=O)N[C@@H](CC(C)C)C(=O)N1CCC[C@H]1C(=O)N[C@@H](CC(C)C)C(=O)O)[C@@H](C)CC)[C@@H](C)O)[C@@H](C)CC [HYNIC-SP94, 6-hydrazinonicotinic acid-SP94] ({HYNIC}-SFSIIHTPILPL-OH)
IC50 [1]: 4.49 ± 0.2 nM

CC[C@H](C)[C@H](NC(=O)[C@H](CO)NC(=O)[C@H](Cc1ccccc1)NC(=O)[C@H](CO)NC(=O)c1ccc(NN)nc1)C(=O)N[C@H](C(=O)N[C@@H](Cc1c[nH]cn1)C(=O)N[C@H](C(=O)N1CCC[C@H]1C(=O)N[C@H](C(=O)N[C@@H](CC(C)C)C(=O)N1CCC[C@H]1C(=O)N[C@@H](CC(C)C)C(=O)O)[C@@H](C)CC)[C@@H](C)O)[C@@H](C)CC [^99mTc tricine-EDDA/HYNIC-SP94, metal not drawn] ({HYNIC}-SFSIIHTPILPL-OH)
Blood uptake ([2]; 0.5 h p.i., blocking): 0.99 ± 0.12 %ID/g
Blood uptake ([2]; 0.5 h p.i., non-blocking): 1.17 ± 0.37 %ID/g
Blood uptake ([2]; 1.5 h p.i., non-blocking): 0.49 ± 0.08 %ID/g
Heart uptake [2, 6]: 0.58 ± 0.03 %ID/g
Heart uptake ([2]; 0.5 h p.i., non-blocking, i.v. ~0.74 MBq/mouse): 0.54 ± 0.13 %ID/g
Heart uptake ([2]; 1.5 h p.i., non-blocking): 0.34 ± 0.03 %ID/g
Tumor uptake [2, 6]: 0.34 ± 0.09 %ID/g
Tumor uptake ([2]; 0.5 h p.i., non-blocking): 1.02 ± 0.26 %ID/g
Tumor uptake ([2]; 1.5 h p.i., non-blocking): 0.74 ± 0.07 %ID/g
Kidney uptake ([2]; 0.5 h p.i., blocking): 7.58±2.25 %ID/g
Kidney uptake ([2]; 0.5 h p.i., non-blocking): 7.40 ± 2.66 %ID/g
Kidney uptake ([2]; 1.5 h p.i., non-blocking): 6.14 ± 0.10 %ID/g
Large intestine uptake ([2]; 0.5 h p.i., blocking): 0.54 ± 0.08 %ID/g
Large intestine uptake ([2]; 0.5 h p.i., non-blocking): 0.70 ± 0.09 %ID/g
Large intestine uptake ([2]; 1.5 h p.i., non-blocking): 0.48 ± 0.02 %ID/g
Liver uptake ([2]; 0.5 h p.i., blocking): 2.07 ± 0.20 %ID/g
Liver uptake ([2]; 0.5 h p.i., non-blocking): 2.39 ± 1.55 %ID/g
Liver uptake ([2]; 1.5 h p.i., non-blocking): 1.98 ± 0.15 %ID/g
Lung uptake ([2]; 0.5 h p.i., blocking): 2.06 ± 0.18 %ID/g
Lung uptake ([2]; 0.5 h p.i., non-blocking): 2.10 ± 0.43 %ID/g
Lung uptake ([2]; 1.5 h p.i., non-blocking): 1.45 ± 0.04 %ID/g
Muscle uptake ([2]; 0.5 h p.i., blocking): 0.23 ± 0.05 %ID/g
Muscle uptake ([2]; 0.5 h p.i., non-blocking): 0.30 ± 0.05 %ID/g
Muscle uptake ([2]; 1.5 h p.i., non-blocking): 0.16 ± 0.02 %ID/g
Small intestine uptake ([2]; 0.5 h p.i., blocking): 0.78 ± 0.11 %ID/g
Small intestine uptake ([2]; 0.5 h p.i., non-blocking): 0.97 ± 0.22 %ID/g
Small intestine uptake ([2]; 1.5 h p.i., non-blocking): 0.73 ± 0.07 %ID/g
Spleen uptake ([2]; 0.5 h p.i., blocking): 1.05 ± 0.27 %ID/g
Spleen uptake ([2]; 0.5 h p.i., non-blocking): 0.84 ± 0.30 %ID/g
Spleen uptake ([2]; 1.5 h p.i., non-blocking): 0.67 ± 0.04 %ID/g
Stomach uptake ([2]; 0.5 h p.i., blocking): 0.84 ± 0.06 %ID/g
Stomach uptake ([2]; 0.5 h p.i., non-blocking): 0.85 ± 0.18 %ID/g
Stomach uptake ([2]; 1.5 h p.i., non-blocking): 0.68 ± 0.09 %ID/g
Thyroid uptake ([2]; 0.5 h p.i., blocking): 0.52 ± 0.04 %ID/g
Thyroid uptake ([2]; 0.5 h p.i., non-blocking): 0.47 ± 0.09 %ID/g
Thyroid uptake ([2]; 1.5 h p.i., non-blocking): 0.27 ± 0.03 %ID/g
Tumor/muscle ([2]; 0.5 h p.i., blocking): 1.56 ± 0.06
Tumor/muscle ([2]; 0.5 h p.i., non-blocking): 3.96 ± 0.06
Tumor/muscle ([2]; 1.5 h p.i., non-blocking): 4.55 ± 0.10
radiochemical purity (RCP) maintained in vivo [3]: about 66%
in vitro stability (RCP) [4]: highly stable; also recorded: slightly better

CC[C@H](C)[C@H](NC(=O)[C@H](CO)NC(=O)[C@H](Cc1ccccc1)NC(=O)[C@H](CO)NC(=O)c1ccc(NN)nc1)C(=O)N[C@H](C(=O)N[C@@H](Cc1c[nH]cn1)C(=O)N[C@H](C(=O)N1CCC[C@H]1C(=O)N[C@H](C(=O)N[C@@H](CC(C)C)C(=O)N1CCC[C@H]1C(=O)N[C@@H](CC(C)C)C(=O)O)[C@@H](C)CC)[C@@H](C)O)[C@@H](C)CC [^188Re-HYNIC-SP94, metal not drawn] ({HYNIC}-SFSIIHTPILPL-OH)
RCP after incubation [5]: 91.67 ± 2.36% and > 90%
